According to patent publication US7276258B2, “Herbal extract and compound lupinoside and its analogues as anti-diabetic type II drugs from plant Pueraria tuberosa” (Council of Scientific & Industrial Research, priority 2004, dated 2007):

Target: T1, insulin receptor (Mus musculus, UniProt P15208)
T1 construct: endogenous in cells; host or cells: 3T3-L1 adipocytes (membrane fraction solubilized with lithium diiodosalicylate / 0.1% Triton X-100)
Test: Scatchard analysis of 125I-insulin binding to solubilized receptor preparation from 3T3L1 adipocytes
Details: insulin alone
Protocol: Radiolabeled insulin binding to solubilized receptor preparations. Control and FFA treated 3T3L1 adipocytes were first washed thrice with 0.02M Phosphate Buffer (pH-7.4) containing 0.14M NaCl and then resuspended in Lysis Buffer (20 mM Tris-HCl, 40 mM NaCl, 5 mM EDTA, 5 mM Iodoacetamide, pH-8.4) supplemented with protease inhibitors (1 μg/ml aprotinin, 1 μg/ml pepstatin, 1 μg/ml leupeptin, 2 mM phenyl methyl sulfonyl fluoride and 1 μg/ml trypsin inhibitor). These cells were then freeze thawed thrice at −70° C. and centrifuged at 10,000 rpm for 15 min at 4° C. The pellet collected was resuspended in Lysis Buffer, sonicated and again centrifuged at 10,000 rpm for 15–20 min at 4° C. The supernatant was dialysed overnight against 10 mM Tris-HCl (pH-7.4) buffer and volume reduced by lyophilisation. […]
Scatchard Analysis. […] After the termination of the incubations, free and bound radioactivity was separated by the addition of 500 μl of 0.5% chilled polyethylene glycol (PEG; MW 6000). […] The radioactivity in the final pellet was measured in a ^125I-gamma counter. The specific binding was calculated by subtracting non-specific binding from total binding. Data were then analyzed by Scatchard analysis to determine the affinity and capacity of insulin receptor binding in the presence or absence of palmitic acid (see FIG. 1b).

T1 sequence (P15208 28-748 limits assumed): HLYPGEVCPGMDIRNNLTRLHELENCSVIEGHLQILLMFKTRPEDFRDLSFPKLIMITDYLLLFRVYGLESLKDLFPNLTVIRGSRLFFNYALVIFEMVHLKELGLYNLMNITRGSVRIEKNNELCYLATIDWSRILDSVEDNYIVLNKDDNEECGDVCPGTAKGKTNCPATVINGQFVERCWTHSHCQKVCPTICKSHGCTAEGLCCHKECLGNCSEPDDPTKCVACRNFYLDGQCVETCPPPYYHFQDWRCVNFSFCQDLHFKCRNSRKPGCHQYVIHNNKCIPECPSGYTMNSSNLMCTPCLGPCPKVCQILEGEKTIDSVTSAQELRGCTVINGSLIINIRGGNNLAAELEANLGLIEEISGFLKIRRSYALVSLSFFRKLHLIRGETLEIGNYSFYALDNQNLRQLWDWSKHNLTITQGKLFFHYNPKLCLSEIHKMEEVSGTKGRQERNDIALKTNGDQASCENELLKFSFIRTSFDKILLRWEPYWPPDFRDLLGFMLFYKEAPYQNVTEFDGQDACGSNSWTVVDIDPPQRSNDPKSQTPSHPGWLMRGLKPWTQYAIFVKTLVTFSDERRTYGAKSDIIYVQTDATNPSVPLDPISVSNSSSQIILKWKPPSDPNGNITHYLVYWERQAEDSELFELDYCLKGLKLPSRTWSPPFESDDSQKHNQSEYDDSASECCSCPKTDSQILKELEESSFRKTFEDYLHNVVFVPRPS
T1 sequence (P15208 753-1372 partner limits assumed): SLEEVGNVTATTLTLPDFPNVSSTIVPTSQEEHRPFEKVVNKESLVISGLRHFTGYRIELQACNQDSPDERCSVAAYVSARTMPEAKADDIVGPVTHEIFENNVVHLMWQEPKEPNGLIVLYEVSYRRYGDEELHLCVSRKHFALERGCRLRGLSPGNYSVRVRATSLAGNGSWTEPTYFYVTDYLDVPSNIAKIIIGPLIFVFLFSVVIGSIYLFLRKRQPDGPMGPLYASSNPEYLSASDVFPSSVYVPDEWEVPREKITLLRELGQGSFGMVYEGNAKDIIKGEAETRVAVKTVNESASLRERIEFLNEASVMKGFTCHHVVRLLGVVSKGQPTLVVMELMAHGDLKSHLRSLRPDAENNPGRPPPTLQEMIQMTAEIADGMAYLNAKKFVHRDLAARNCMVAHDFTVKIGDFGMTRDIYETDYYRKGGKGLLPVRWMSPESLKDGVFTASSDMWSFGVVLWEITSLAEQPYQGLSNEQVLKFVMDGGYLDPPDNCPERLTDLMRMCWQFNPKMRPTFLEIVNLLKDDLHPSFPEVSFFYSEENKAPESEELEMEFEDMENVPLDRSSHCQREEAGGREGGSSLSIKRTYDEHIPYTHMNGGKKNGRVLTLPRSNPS

Ka of insulin binding to solubilized receptor: 1.6e+09 M⁻¹
Substance: insulin: recombinant human insulin, radiolabelled with 125I for binding
